Reference: publication PMC9512700, “Observation of conformational changes that underlie the catalytic cycle of Xrn2” (Nature Chemical Biology, 2022)

T1: CtXrn2 (Xrn2 WT, residues 1-875) (Thermochaetoides thermophila, UniProt G0S058)
T1 construct: gene CTHT_0008830; Xrn core, residues 1-875, C-terminal tag LEHHHHHH kept, E. coli BL21(DE3) CodonPlus-RIL, 100 kDa, single chain; Ile-delta1/Met methyl-labelled for NMR
T1 sequence (G0S058 1-875): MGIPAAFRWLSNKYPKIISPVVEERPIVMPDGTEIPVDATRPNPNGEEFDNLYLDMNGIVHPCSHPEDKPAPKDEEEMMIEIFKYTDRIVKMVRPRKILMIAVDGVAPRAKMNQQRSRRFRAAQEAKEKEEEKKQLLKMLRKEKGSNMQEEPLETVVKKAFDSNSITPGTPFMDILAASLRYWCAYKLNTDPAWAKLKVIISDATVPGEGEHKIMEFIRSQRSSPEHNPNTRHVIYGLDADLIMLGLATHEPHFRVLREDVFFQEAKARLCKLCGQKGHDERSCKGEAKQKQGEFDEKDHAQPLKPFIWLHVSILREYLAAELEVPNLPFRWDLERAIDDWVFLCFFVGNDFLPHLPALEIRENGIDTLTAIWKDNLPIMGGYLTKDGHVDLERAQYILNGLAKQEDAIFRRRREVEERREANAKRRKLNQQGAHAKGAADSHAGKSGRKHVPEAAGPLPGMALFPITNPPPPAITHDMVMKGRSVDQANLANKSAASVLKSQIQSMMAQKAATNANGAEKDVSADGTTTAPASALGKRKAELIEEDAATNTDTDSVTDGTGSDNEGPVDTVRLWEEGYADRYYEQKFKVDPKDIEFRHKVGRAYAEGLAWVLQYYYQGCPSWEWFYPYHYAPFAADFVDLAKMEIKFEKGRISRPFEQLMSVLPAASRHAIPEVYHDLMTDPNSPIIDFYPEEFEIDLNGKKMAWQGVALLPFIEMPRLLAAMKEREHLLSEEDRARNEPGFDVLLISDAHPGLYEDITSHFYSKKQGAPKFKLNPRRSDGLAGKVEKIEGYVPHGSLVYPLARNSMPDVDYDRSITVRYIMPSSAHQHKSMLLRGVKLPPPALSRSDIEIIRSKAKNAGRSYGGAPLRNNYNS

T2: CtXrn2 deltaZnF (Chaetomium thermophilum, UniProt G0S058 1-875, del263-300)
T2 sequence: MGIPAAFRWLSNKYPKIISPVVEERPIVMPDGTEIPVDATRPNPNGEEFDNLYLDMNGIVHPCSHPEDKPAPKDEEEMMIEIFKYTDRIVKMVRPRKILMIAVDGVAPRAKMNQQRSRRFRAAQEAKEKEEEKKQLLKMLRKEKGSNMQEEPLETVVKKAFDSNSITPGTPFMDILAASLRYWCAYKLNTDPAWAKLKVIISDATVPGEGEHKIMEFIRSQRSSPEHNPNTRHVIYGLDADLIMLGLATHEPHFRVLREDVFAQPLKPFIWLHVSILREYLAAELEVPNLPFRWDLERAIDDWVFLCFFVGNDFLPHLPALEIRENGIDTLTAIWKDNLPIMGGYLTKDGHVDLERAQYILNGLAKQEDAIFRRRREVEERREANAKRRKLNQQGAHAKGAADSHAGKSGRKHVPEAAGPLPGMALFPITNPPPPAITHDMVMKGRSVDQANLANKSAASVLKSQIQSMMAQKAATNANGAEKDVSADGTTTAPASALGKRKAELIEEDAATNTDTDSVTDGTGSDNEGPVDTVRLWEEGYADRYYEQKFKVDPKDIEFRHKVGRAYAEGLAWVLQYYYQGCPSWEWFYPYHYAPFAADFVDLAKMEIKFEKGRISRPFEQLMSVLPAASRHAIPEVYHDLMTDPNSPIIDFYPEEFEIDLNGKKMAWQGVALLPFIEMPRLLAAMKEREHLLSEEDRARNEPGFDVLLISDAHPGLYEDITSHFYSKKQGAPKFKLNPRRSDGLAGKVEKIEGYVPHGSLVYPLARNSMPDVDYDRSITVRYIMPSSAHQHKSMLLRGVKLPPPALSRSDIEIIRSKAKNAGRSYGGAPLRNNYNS

T3: CtXrn2 1-875 (WT) (Chaetomium thermophilum, UniProt G0S058 1-875)
T3 sequence: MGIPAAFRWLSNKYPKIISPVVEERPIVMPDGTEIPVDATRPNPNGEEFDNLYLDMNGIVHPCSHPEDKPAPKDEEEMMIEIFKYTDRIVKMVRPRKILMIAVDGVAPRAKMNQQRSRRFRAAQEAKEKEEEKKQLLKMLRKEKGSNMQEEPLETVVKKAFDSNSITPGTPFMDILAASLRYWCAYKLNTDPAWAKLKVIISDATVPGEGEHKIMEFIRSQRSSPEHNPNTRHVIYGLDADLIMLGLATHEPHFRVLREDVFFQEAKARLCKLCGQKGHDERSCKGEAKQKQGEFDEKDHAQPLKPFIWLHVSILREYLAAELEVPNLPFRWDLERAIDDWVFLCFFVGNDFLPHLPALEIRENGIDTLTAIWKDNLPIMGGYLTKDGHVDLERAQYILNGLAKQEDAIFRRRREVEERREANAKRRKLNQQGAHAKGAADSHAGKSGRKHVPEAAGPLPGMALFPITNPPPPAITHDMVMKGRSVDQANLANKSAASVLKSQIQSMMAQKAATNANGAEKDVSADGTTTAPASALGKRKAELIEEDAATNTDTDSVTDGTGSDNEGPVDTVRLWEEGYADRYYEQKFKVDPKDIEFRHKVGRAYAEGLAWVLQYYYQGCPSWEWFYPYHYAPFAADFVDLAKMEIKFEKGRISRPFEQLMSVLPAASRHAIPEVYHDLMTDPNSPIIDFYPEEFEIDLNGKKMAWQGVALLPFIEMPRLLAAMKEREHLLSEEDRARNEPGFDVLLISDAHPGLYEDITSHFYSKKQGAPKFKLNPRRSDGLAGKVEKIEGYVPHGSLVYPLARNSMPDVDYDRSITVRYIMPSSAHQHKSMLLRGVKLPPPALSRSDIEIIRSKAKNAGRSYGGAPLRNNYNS

B1: ZIKV xrRNA (structured_RNA)
RNA: GGGAGUGUUGUAAGCACCAAUUUUAGUGUUGUCAGGCCGGCGAAAGUCGCCACAGUUUGGGGAAAGCUGUGCAGCCUGUAACCCCCCCACGAAAGUGGG
modifications: 5'-monophosphate

Key:
[1] = biological target: T1, CtXrn2 (Xrn2 WT, residues 1-875); assay: 1H-13C HMQC methyl-TROSY NMR chemical shift perturbation; format: binding; settings: 313 K; 5 mM MgCl2; 50 uM protein; 500 uM pAp; around active site
[2] = biological target: T4, CtXrn2 (Xrn2 WT, residues 1-875) (Thermochaetoides thermophila, UniProt G0S058, A5F); assay: 1H-13C HMQC methyl-TROSY NMR; format: binding; settings: 313 K; 5 mM MgCl2; 50 uM protein; 500 uM pAp
T4 construct: gene CTHT_0008830; Xrn core, residues 1-875, C-terminal tag LEHHHHHH kept, E. coli BL21(DE3) CodonPlus-RIL, 100 kDa, single chain; Ile-delta1/Met methyl-labelled for NMR

CtXrn2 deltaZnF = biological target: T2, CtXrn2 deltaZnF; assay: fluorescence anisotropy; no Mg2+, with Zn2+; Fluorescence anisotropy: 25 mM HEPES pH 7.3, 125 mM NaCl, 0.002% Triton, no Mg2+, with Zn2+, temperature not stated (room temperature used for dG); NMR: 25 mM H; settings: protein: recombinant; label: fluorescein on 3' thiouridine (6-iodoacetamido-fluorescein); single strand
CtXrn2 1-875 (WT) [3] = biological target: T3, CtXrn2 1-875 (WT); assay: as above; settings: protein: recombinant; label: fluorescein on 3' thiouridine (6-iodoacetamido-fluorescein); single strand
CtXrn2 1-875 (WT) [4] = biological target: T3, CtXrn2 1-875 (WT); assay: NMR (methyl-TROSY CSP); 5 mM Mg2+; RNA trimmed at 5' end; locked in pre-translocation state; Fluorescence anisotropy: 25 mM HEPES pH 7.3, 125 mM NaCl, 0.002% Triton, no Mg2+, with Zn2+, temperature not stated (room temperature used for dG); NMR: 25 mM H; settings: protein: recombinant; pseudoknot with unstructured 5' end
CtXrn2 1-875 (WT) [5] = biological target: T3, CtXrn2 1-875 (WT); assay: NMR (methyl-TROSY CSP of M704); no Mg2+; active state not formed; Fluorescence anisotropy: 25 mM HEPES pH 7.3, 125 mM NaCl, 0.002% Triton, no Mg2+, with Zn2+, temperature not stated (room temperature used for dG); NMR: 25 mM H; settings: protein: recombinant; single strand

T4 sequence (G0S058 entry or part of it A5F): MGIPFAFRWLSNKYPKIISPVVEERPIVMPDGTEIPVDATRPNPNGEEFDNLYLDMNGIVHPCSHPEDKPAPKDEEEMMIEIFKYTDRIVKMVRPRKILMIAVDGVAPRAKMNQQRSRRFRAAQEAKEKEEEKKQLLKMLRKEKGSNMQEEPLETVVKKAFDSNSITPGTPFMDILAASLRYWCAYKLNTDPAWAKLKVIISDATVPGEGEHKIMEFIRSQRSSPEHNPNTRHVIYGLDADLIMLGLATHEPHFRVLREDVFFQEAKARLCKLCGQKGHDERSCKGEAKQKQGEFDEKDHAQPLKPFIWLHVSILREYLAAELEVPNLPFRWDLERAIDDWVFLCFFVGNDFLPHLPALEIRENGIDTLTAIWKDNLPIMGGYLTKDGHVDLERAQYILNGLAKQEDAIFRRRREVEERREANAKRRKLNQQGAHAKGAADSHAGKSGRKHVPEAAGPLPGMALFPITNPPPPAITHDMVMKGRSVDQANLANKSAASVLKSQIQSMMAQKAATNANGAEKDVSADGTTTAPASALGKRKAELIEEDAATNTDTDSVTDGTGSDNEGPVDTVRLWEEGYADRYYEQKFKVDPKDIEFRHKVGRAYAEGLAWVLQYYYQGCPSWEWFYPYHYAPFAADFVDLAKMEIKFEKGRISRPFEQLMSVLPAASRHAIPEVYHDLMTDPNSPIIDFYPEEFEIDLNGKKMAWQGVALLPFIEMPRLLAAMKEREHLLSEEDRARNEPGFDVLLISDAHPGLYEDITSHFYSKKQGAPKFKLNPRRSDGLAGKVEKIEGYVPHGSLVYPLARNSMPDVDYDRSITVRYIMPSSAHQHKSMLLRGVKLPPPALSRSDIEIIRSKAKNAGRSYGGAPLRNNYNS

Molecule	binding signal (CtXrn2 deltaZnF)	binding result (CtXrn2 1-875 (WT) [3])	also measured
Nc1ncnc2c1ncn2[C@@H]1O[C@H](COP(=O)(O)O)[C@@H](OP(=O)(O)O)[C@H]1O [pAp]	–	–	1H-13C HMQC methyl-TROSY NMR chemical shift perturbation [1]: The binding of pAp to Xrn2 resulted in substantial chemical shift perturbations; 1H-13C HMQC methyl-TROSY NMR [2]: HMQC spectra of the Xrn2 WT:pAp complex (black) and Xrn2 A5F:pAp complex (orange)
GGAGGAGAGU (ssRNA, 5'-monophosphate; 3'-terminal 4-thiouridine) [10-mer RNA]	~3 fold Kd increase vs WT	binds	–
B1	–	–	binding result (CtXrn2 1-875 (WT) [4]): binds
AAAAA (ssDNA, 5'-phosphate) [pdA5]	–	–	binding result (CtXrn2 1-875 (WT) [5]): binds
GGAGU (ssRNA, 5'-monophosphate; 3'-terminal 4-thiouridine) [5-mer RNA]	1.5 fold Kd increase vs WT	binds	–
